Test results reported in paper PMC6290791, “microRNA-29b mediates fibrotic induction of human xylosyltransferase-I in human dermal fibroblasts via the Sp1 pathway”.

B1: SP1.3 (dsDNA)
DNA 1: TCCTCCCTCGGCTCCTCCCCCAGGC
DNA 2: GCCTGGGGGAGGAGCCGAGGGAGGA
B2: SP1.2 (dsDNA)
DNA 1: CTGATCGCCCCCACCCCCTTCCTTT
DNA 2: AAAGGAAGGGGGTGGGGGCGATCAG
B3: SP1.4 (dsDNA)
DNA 1: CCCAGGCCCCGCCCTCTCCGCCTCG
DNA 2: CGAGGCGGAGAGGGCGGGGCCTGGG

Molecular target: Sp3 (UniProt Q02447 1-781)
Assay: EMSA; 5 mM MgCl2; 10 mM Tris pH 7.5, 50 mM KCl, 1 mM DTT, 75 ng/ul poly(dI-dC), 0.25 mg/ml BSA, 40 fmol probe, 1 ug protein, 20 min room temperature; Sp3 buffer plus 5% glycerol, 5 mM MgCl2, 0.025% NP-40; 6% PAGE in 0.5x TBE
Conditions: protein: commercial; label: 5'-biotin on both strands; blunt

Chain of Sp3 (Q02447 whole entry): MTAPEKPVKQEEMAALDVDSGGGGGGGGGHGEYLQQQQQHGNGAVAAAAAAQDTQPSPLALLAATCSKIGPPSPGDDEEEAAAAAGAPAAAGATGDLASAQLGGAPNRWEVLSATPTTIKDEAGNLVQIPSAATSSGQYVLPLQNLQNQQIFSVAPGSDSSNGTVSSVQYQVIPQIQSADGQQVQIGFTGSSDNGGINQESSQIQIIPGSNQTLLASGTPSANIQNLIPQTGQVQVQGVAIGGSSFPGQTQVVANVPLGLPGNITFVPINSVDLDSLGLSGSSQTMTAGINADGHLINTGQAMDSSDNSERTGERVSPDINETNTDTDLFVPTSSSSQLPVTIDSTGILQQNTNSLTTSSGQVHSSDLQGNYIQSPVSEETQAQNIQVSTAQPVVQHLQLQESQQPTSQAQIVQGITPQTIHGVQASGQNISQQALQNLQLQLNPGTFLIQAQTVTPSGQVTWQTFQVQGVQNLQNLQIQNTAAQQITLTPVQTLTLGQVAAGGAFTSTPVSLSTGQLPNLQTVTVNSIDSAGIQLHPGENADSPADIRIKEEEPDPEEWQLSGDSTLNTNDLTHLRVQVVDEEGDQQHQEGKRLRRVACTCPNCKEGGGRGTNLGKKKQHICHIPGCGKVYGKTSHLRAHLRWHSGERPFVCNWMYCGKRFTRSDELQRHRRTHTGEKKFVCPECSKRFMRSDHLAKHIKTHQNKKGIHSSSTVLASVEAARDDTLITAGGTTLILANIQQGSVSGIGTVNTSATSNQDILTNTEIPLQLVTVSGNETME

Row | Binder | binding signal
1 | B1 | 100 % of strongest band
2 | B2 | 99.3 % of strongest band
3 | B3 | 83.4 % of strongest band
